{"source": "patent US20200010836A1", "about": "“Regulation of Gene Expression by Aptamer-Mediated Accessibility of Polyadenylation Signals” (MEIRAGTX, UK II Limited, priority 2017, published 2020)", "molecules": {"B1": {"name": "ATA_Gua_2: SEQ ID NO: 2; xpt-guanine aptamer linked to 10 bp stem-loop embedding AATAAA; also used in pEGFP vector (nucleic acid)", "DNA": "AAGGCCAAGAAGGGCGGAAAGATCGCCGTGTAAGCCATACCACATTTGTAGAGGTTTTACTTGCTTTAAAAAACCTCCCACACCTCCCCCTGAACCTGAAACATAAAATGAATGCAATTGTTGTTGTTAACTTGTTTATTGCAGCTTATAATGGTTACAAATAAAGCAATAGCATCACAAATTTCACATAAAGCATAATCGCGTGGATATGGCACGCAAGTTTCTACCGGGCACCGTAAATGTCCGACTGCTTTATTTCGAAAGAAATAAAGCATTTTTTTCACTGCATTCTAGTTGTGGTTTGTCCAAACTCATCAATGTATCTTAACGCGT"}, "B2": {"name": "ATA_Gua_4: SEQ ID NO: 4; xpt-guanine aptamer linked to 14 bp stem-loop embedding AATAAA; also used in pEGFP vector (nucleic acid)", "DNA": "AAGGCCAAGAAGGGCGGAAAGATCGCCGTGTAAGCCATACCACATTTGTAGAGGTTTTACTTGCTTTAAAAAACCTCCCACACCTCCCCCTGAACCTGAAACATAAAATGAATGCAATTGTTGTTGTTAACTTGTTTATTGCAGCTTATAATGGTTACAAATAAAGCAATAGCATCACAAATTTTAAAGCAATAATCGCGTGGATATGGCACGCAAGTTTCTACCGGGCACCGTAAATGTCCGACTTGCTTTATTTGTGCGAAAGCACAAATAAAGCATTTTTTTCACTGCATTCTAGTTGTGGTTTGTCCAAACTCATCAATGTATCTTAACGCGT"}, "B3": {"name": "ATA_Ydhl: SEQ ID NO: 17; adenine aptamer ydhl-A linked to 9 bp TTCG stem-loop embedding AATAAA, P1 stem 10 bp (nucleic acid)", "DNA": "AAGGCCAAGAAGGGCGGAAAGATCGCCGTGTAAGCCATACCACATTTGTAGAGGTTTTACTTGCTTTAAAAAACCTCCCACACCTCCCCCTGAACCTGAAACATAAAATGAATGCAATTGTTGTTGTTAACTTGTTTATTGCAGCTTATAATGGTTACAAATAAAGCAATAGCATCACAAATTTCAATAAAGGTATAACCTCAATAATATGGTTTGAGGGTGTCTACCAGGAACCGTAAAATCCTGATTACCTTTATTTCTTCGGAAATAAAGCATTTTTTTCACTGCATTCTAGTTGTGGTTTGTCCAAACTCATCAATGTATCTTAACGCGT"}}, "assay_type_in_all_cases": "cell-based", "key": {"EGFP expression": {"test_system": "EGFP expression", "experiment": "GFP fluorescence of HEK 293 cells transfected with pEGFP riboswitch constructs, treated with guanine", "conditions": "500 μM guanine vs NaOH solvent control", "description": "(§1) Transfection and aptamer ligand treatment: 3.5×10^4 HEK 293 cells were plated in a 96-well flat bottom plate the day before transfection. Plasmid DNA (500 ng) was added to a tube or a 96-well U-bottom plate. Separately, TransIT-293 reagent (Minis; 1.4 μl) was added to 50 μl opti-mem I media (Life Technologies), and allowed to sit for 5 minutes at room temperature (“RT”). Then, 50 μl of this diluted transfection reagent was added to the DNA, mixed, and incubated at RT for 20 min. Finally, 7 μl of this solution was added to a well of cells in a 96-well plate. Four hours after transfection, the media was aspirated, and new media was added with (i) DMSO (0.5%) or 500 μM guanosine; or (ii) NaOH (2 mM) as solvent control or 500 μM guanine. The induction fold was expressed as the quotient of luciferase activity obtained in the presence of aptamer ligand divided by the value obtained in the absence of the aptamer ligand.\nTransfection and measurement of GFP fluorescence: 3.5×10^4 HEK 293 cells were plated in 96-well flat bottom plate the day before transfection. […] GFP fluorescence intensity was measured by Tecan plate reader, using Excitation wavelength at 484 nm, Emission wavelength at 510 nm and Excitation bandwidth at 5 nm. The GFP fluorescence intensity was expressed as the value generated by GFP constructs subtracted by the value generated by cells without transfection."}, "luciferase expression [1]": {"test_system": "luciferase expression", "experiment": "Firefly luciferase assay of HEK 293 cells transfected with riboswitch constructs, treated with guanosine or guanine", "conditions": "absence of guanine treatment", "description": "as §1\n(§2) Firefly luciferase assay of cultured cells: Twenty-four hours after media change, plates were removed from the incubator, and equilibrated to RT for several minutes on a lab bench, then aspirated. Glo-lysis buffer (Promega, […]) was added, and the plates allowed to remain at RT for at least 5 minutes. Then, the well contents were mixed by 50 μL trituration, and 20 μL of each sample was mixed with 20 μL of bright-glo reagent (Promega) that had been diluted to 10% in glo-lysis buffer. 96 wells were spaced on an opaque white 384-well plate. Following a 5-min incubation at RT, luminescence was measured using Tecan machine with 500 mSec read time. The luciferase activity was expressed as mean relative light unit (RLU)±S.D."}, "luciferase expression [2]": {"test_system": "luciferase expression", "experiment": "Firefly luciferase assay of HEK 293 cells transfected with adenine aptamer construct, treated with adenine", "description": "as §1, §2\nFour hours after transfection, the media was aspirated, and new media with NaOH (1 mM) or 1 mM adenine (Calbiochem) was added. The induction fold was expressed as the quotient of luciferase activity obtained in the presence of aptamer ligand divided by the value obtained in the absence of the aptamer ligand."}}, "data": [{"molecule": "B1", "values": [{"measurement": "fold increase in GFP expression on guanine treatment", "setting": "EGFP expression", "result": 1.5, "unit": "fold"}]}, {"molecule": "B2", "values": [{"measurement": "basal level luciferase expression, % of the pFLuc control vector", "setting": "luciferase expression [1]", "result": 16, "unit": "%"}, {"measurement": "fold increase in GFP expression on guanine treatment", "setting": "EGFP expression", "result": 1.6, "unit": "fold"}]}, {"molecule": "B3", "values": [{"measurement": "luciferase expression in the presence of adenine, % of the control pFLuc construct in the presence of adenine", "setting": "luciferase expression [2]; 1 mM adenine", "result": "approximately 82%"}, {"measurement": "fold increase in luciferase expression on adenine treatment", "setting": "luciferase expression [2]; 1 mM adenine vs NaOH solvent control", "result": 4.0, "unit": "fold"}, {"measurement": "luciferase level in the absence of adenine, % of the control pFLuc construct", "setting": "luciferase expression [2]; absence of adenine treatment", "result": "approximately 52%"}]}]}
